Tested on: MS2 coat protein
Experiment: apparent KD of MS2 coat protein; designed switch direction (-1 OFF switch, 1 ON switch): -1; higher = weaker reporter binding
Summary of the method: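 Stalled E. coli RNA polymerase transcribed designed RNA switches on Illumina chips, which were then titrated with SNAP-549-labelled MS2 coat protein, doubling from 0.7 or 1.5 nM to 3 µM. Steps lasted from 0.8–1.5 h at the lowest concentration to 10–20 min at the highest. The apparent KD is each design's median over clusters of curve-fitted normalised fluorescence.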

[1] = Eterna round: R95, input ligand: microRNA oligo, concentration not stated
[2] = input ligand: microRNA oligo, concentration not stated
[3] = Eterna round: R95, input ligand: FMN 200 uM
[4] = Eterna round: R95, input ligand: none

| Sequence | apparent KD of MS2 coat protein [1] | apparent KD of MS2 coat protein (input ligand: FMN 200 uM) | apparent KD of MS2 coat protein (input ligand: none) | apparent KD of MS2 coat protein [2] | apparent KD of MS2 coat protein [3] | apparent KD of MS2 coat protein [4] |
| --- | --- | --- | --- | --- | --- | --- |
| GUAGAGUAAGGAUAUGGUGAAUAGGAUAGAAUGGUUAGAAACUAGAAGGUACAUGAGGAUCACCCAUGUAAUGU [Excluse me!!!! 23 - Jieux - Exclusion 4] (puzzle: Exclusion 4) | 20.8 nM | – | – | – | – | – |
| GUAGAGUCAGGAUAUACAAAACCAUCGAAAGAUGGAUCCAUACAUGAGGAUCACCCAUGUAGAAGGGACUCUAC [Eli x2 4.17] (Eterna round: R97, puzzle: Exclusion 2) | – | 21 nM | 17.1 nM | – | – | – |
| GUAGAGUCAGGAUAUACAAGAUCGAAAGAUCAAAGAUCCAUACAUGAGGAUCACCCAUGUAGAAGGGACUCUAC [Eli x2 4.10] (Eterna round: R97, puzzle: Exclusion 2) | – | 73.5 nM | 22.4 nM | – | – | – |
| GUAGAGUCAGGAUAUACAAGAUCGAAAGAUCGGCGAUCCAUACAUGAGGAUCACCCAUGUAGAAGGGACUCUAC [Eli x2 4.003] (Eterna round: R97, puzzle: Exclusion 2) | – | 560 nM | 33.4 nM | – | – | – |
| GUAGAGUCAGGAUAUACGAGAUCGAUAGAUCGGCGAUCCCUACAUGAGGAUCACCCAUGUAGAAGGGACUCUAC [Mat - Exclusion 2 - Eli Mod - D12] (Eterna round: R97, puzzle: Exclusion 2) | – | 37.6 nM | 15.6 nM | – | – | – |
| GUAGAGUGAGGAUAUACGAGAUCGAUAGAUCGGCGAUCCAAACAUGAGGAUCACCCAUGUAGAAGGCACUCUAC [Mat - Exclusion 2 - Eli Mod - D6] (Eterna round: R97, puzzle: Exclusion 2) | – | 455 nM | 90.4 nM | – | – | – |
| GUAGGUUAAGUAAGGAUAUACCUCUGGAAACAGAGGUAGAAGGUACAUGAGGAUCACCCAUGUUUCUCUUUUGC [Mod of Eli 6 - Jieux - Brourd's mod of Exclusion 4] (Eterna round: R97, puzzle: Brourd's mod of Exclusion 4) | – | 21.8 nM | 18.7 nM | – | – | – |
| GUAUAACAUGUAGGAUAUGCGUGGCGAAGCUAUGCAGAAGGACAUGAGGAUCACCCAUGUAAUAGCGUCUGCGUACAGAUGCAA [Mat - Exclusion NG 1 - Mod of JL - D90] (Eterna round: R96, puzzle: Exclusion NG 1) | – | 134 nM | 40.8 nM | 27.9 nM | – | – |
| GUAUAACUACACGGGCUCAACAUGAGGAUCACCCAUGUCUUAUACGCAAGCUUUUUGCUUGUCUUAUCUGUCCGUGA [Tibimaesan] (puzzle: Sensor v3, turn-off variant 1) | 11.9 nM | – | – | – | 12.6 nM | 12.3 nM |
| GUAUGAGGAGGAUAUACGUAUCCUUGACCCUGCUAGCGCGGACAUGAGGAUCACCCAUGUAGAAGGUUUCGACA [Eternabot (L1) Solution 46] (Eterna round: R97, puzzle: Exclusion 2) | – | 28.8 nM | 38.6 nM | – | – | – |
| GUAUGGAGAGUGAGGAUAUUUCCUGAGUGAUCAGCGAAGAAGGUACAUGAGGAUCACCCAUGUAGGUGGACUAA [Eternabot (L1) Solution 14] (Eterna round: R97, puzzle: Brourd's mod of Exclusion 4) | – | 82.4 nM | 70.5 nM | – | – | – |
| GUAUGUGACGAGGAUAUCACCUUGUUACUUAGAUGAGAAGGCGUCACAUGAGGAUCACCCAUGUGAUGAAAAGA [EX6 A.14] (Eterna round: R97, puzzle: Exclusion 6) | – | 27.4 nM | 21.4 nM | – | – | – |
| GUAUGUGCGAGAGGAUAUCGUGUACAAAGUACACGAGAAGGCUUCACAUGAGGAUCACCCAUGUACCGAGGUGAAACACCUUGA [Omei Exc(NG)1 Bv8] (Eterna round: R96, puzzle: Exclusion NG 1) | – | 934 nM | 270 nM | 173 nM | – | – |
| GUCACAUGGACAUAGGAUCACAUGAGGAUCACCCAUGUGACUAACAAGCUUUUUGCUCGUCUUAUGUCUAUGUGAAU [Stov1/16-A2] (Eterna round: R97, puzzle: Sensor, turn-off variant 1) | – | 14 nM | 14.3 nM | – | – | – |
| GUCACAUGGGUAUAGGAUCACAUGAGGAUCACCCAUGUGACUAACAAGCUUUUUGCUCGUCUUAUGUCUAUGUGAAU [Stov1/18-A2] (Eterna round: R97, puzzle: Sensor, turn-off variant 1) | – | 26.2 nM | 32.4 nM | – | – | – |
| GUCAGACGAGGAUAUAGAUUUGAUAACAUGAGGAUCACCCAUGUGAUCGAUAGAUCAGAUUUAGAAGGUGUCUGAC [E5/8-B3] (Eterna round: R97, puzzle: Exclusion 5) | – | 403 nM | 331 nM | – | – | – |
| GUCAGCUCGUCAGGAUAUACAUGCGUGCUUCGGCACGAAUUUAAGAUCACAUGAGGAUCACCCAUGUAGAAGGGACGAGCUGAC [ENG2/3-B1] (Eterna round: R96, puzzle: Exclusion NG 2) | – | 741 nM | 534 nM | 515 nM | – | – |

| Sequence | apparent KD of MS2 coat protein [1] | apparent KD of MS2 coat protein (input ligand: FMN 200 uM) | apparent KD of MS2 coat protein (input ligand: none) | apparent KD of MS2 coat protein [2] | apparent KD of MS2 coat protein [3] | apparent KD of MS2 coat protein [4] |
| --- | --- | --- | --- | --- | --- | --- |
| GUCAGCUCGUCAGGAUAUACAUGCGUGCUUCGGCACGUAUGAUAGAUCACAUGAGGAUCACCCAUGUAGAAGGGACGAGCUGAU [ENG2/4-B2] (Eterna round: R96, puzzle: Exclusion NG 2) | – | 16.6 nM | 14.4 nM | 10 nM | – | – |
| GUCAGCUCGUGAGGAUAUACAUGAGGAUCACCCAUGUGAUCAAUAGCAGCUUCGGCUGCAUACAUGUAGAAGGCACGAGCUGAU [ENG2/6-A2] (Eterna round: R96, puzzle: Exclusion NG 2) | – | – | – | 27.5 nM | – | – |
| GUCAGCUCGUGAGGAUAUACAUGCGUGCUUCGGCACGAAUUUAAGAUCACAUGAGGAUCACCCAUGUAGAAGGUACGAGCUGAC [ENG2/3-C1] (Eterna round: R96, puzzle: Exclusion NG 2) | – | 632 nM | 387 nM | 646 nM | – | – |
| GUCAGCUCGUGAGGAUAUGAACAUGAGGAUCACCCAUGUAAGAUCAAGCUGCUUCGGCAGCAAGUUCAGAAGGUACGAGCUGAU [ENG2/10-C2] (Eterna round: R96, puzzle: Exclusion NG 2) | – | 243 nM | 122 nM | 93.3 nM | – | – |
| GUCAGCUCGUGAGGAUAUGCACAUGAGGAUCACCCAUGUAAGAUCAAGCUGCUUCGGCAGCAAGUGCAGAAGGCACGAGCUGAU [ENG2/9-A3] (Eterna round: R96, puzzle: Exclusion NG 2) | – | 148 nM | 210 nM | 179 nM | – | – |
| GUCAUACAUGAGGAUCACCCAUGUAAGGAUAUGCUAGCGGUCGGCUGACUGACUGCUAGCAGAAGGUACAUGAU (puzzle: Exclusion 1) | 61.5 nM | – | – | – | – | – |
| GUCAUGUCAGGAUAUGCUUAUGAUGGGUGCUCAGACAUGAUGCAGAAGGGACAUGAGGAUCACCCAUGUACUGA [EX4 #15] (Eterna round: R97, puzzle: Exclusion 4) | – | 84.8 nM | 68.3 nM | – | – | – |
| GUCCUACAUGAGGAUCACCCAUGUAAGGAUAUGCUAGCGGUCGGAAGACUGACUGCUAGCAGAAGGUACAUGAU [Mat - Mod of JL D79] (puzzle: Exclusion 1) | 13.9 nM | – | – | – | – | – |
| GUCCUCAUGACAUGAGGAUCACCCAUGUAUUAUUUGUUAACUGAGGAUAUACUCUUAUUUUUUAUGUAGAAGGCAGAUUUGUUC [JR_ExcNG3_Sub021] (Eterna round: R96, puzzle: Exclusion NG 3) | – | 43.1 nM | 31.2 nM | 27.7 nM | – | – |
| GUCCUGGACUAUCACAAGCACAUGAGGAUCACCCAUGUCAUGGGUAGAUCCAUAAAUAAAGAUACUGCUCGUCUUAU [Cac sensor turnoff var1 sub5] (Eterna round: R97, puzzle: Sensor, turn-off variant 1) | – | 177 nM | 303 nM | – | – | – |
| GUCCUGGUAGGAUAUGAGGUUCACGACAUGAGGAUCACCCAUGUGGCCGUGUCUCAUACUUCAGAAGGACCGACAG [Eternabot (L2) Solution 5] (Eterna round: R97, puzzle: Exclusion 5) | – | 16.1 nM | 15.7 nM | – | – | – |
| GUCGCUUUUUGUUUGUUUUACAUGAGGAUCACCCAUGUACGUUGGUUACAAUAAAGUUCCGUGGCGGAUCAAUCUGA [Eternabot (L1) Solution 12] (Eterna round: R97, puzzle: Sensor, turn-off variant 1) | – | 24.9 nM | 28.2 nM | – | – | – |
| GUCGGACAUGAGGAUCACCCAUGUGAGGAUAUCCUUUAGAGCUAUUAGUAGAUGCUUAGGAGAAGGCACUAGGG [Eternabot (L2) Solution 17] (Eterna round: R97, puzzle: Exclusion 1) | – | 93.9 nM | 314 nM | – | – | – |
| GUCGUGCGGCUUUGCUGUGCGAGUACAUGAGGAUCACCCAUGUAGGAUAUGGUACGCUUUGCGUGCCAGAAGGGCGUGCGUUGG [salish99_ExNG3_r04_007] (Eterna round: R96, puzzle: Exclusion NG 3) | – | 38 nM | 35.4 nM | 28.6 nM | – | – |
| GUCGUGUUAGGAUAUUGGCCUUUUAGAUGCACUAAGUGAGACGAGAAGGGACAUGAGGAUCACCCAUGUAAUAA [Eternabot (L1) Solution 69] (Eterna round: R97, puzzle: Exclusion 4) | – | 47.4 nM | 36.4 nM | – | – | – |
| GUGAAACAUGAGGAUCACCCAUGUGAGGAUAUGAUUUAGUAAUGGAGACAGUACAUAUUCAGAAGGCACAAUGG [Mat - Mod of JL D76] (puzzle: Exclusion 1) | 150 nM | – | – | – | 55.2 nM | 182 nM |

Source: the supplement of paper PMC9170038
